Data as given in US20200262877A1, “ION CHANNEL-BINDING PEPTIDES AND METHODS OF USE THEREOF” (priority 2017, published 2020).

Columns and labels:
[1] = target: T1, TRPV1 (Homo sapiens, UniProt Q8NER1); assay: Ion channel panel (IonWorks Barracuda): TRPV1; type: cell-based; conditions: 100% = no change, <100% = inhibition
T1 construct: host or cells: HEK293 or CHO
Summary of the method: (§1)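 Transfected HEK293 or CHO cells were exposed for at least 5 min to peptides at 200 nM and 20 μM final, tested in duplicate, in HEPES-buffered physiological saline. Activation was taken as peptide-plus-agonist current over control current ×100, and inhibition as 1 minus that ratio ×100. Each channel's control was its own reference compound.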

[2] = target: T2, Cav2.1 (Homo sapiens, UniProt O00555); assay: cell-based; conditions: 100% = no change, <100% = inhibition
T2 construct: host or cells: HEK293 or CHO
Summary of the method: as §1

[3] = target: T3, Cav2.2 (Homo sapiens, UniProt Q00975); assay: cell-based; conditions: 100% = no change, <100% = inhibition
T3 construct: host or cells: HEK293 or CHO
Summary of the method: as §1

[4] = target: T4, Kv2.1 (Homo sapiens, UniProt Q14721); assay: cell-based; conditions: 100% = no change, <100% = inhibition
T4 construct: host or cells: HEK293 or CHO
Summary of the method: as §1

[5] = target: T5, Kir2.1 (Homo sapiens, UniProt P63252); assay: Ion channel panel (IonWorks Barracuda): Kir2.1; type: cell-based; conditions: 100% = no change, <100% = inhibition
T5 construct: host or cells: HEK293 or CHO
Summary of the method: as §1

[6] = target: T6, NR2A (Homo sapiens, UniProt Q12879); assay: Ion channel panel (IonWorks Barracuda): NR2A; type: cell-based; conditions: 100% = no change, <100% = inhibition
T6 construct: host or cells: HEK293 or CHO
Summary of the method: as §1

[7] = tested on: GABA; assay: Ion channel panel (IonWorks Barracuda): GABA; type: cell-based; conditions: 100% = no change, <100% = inhibition
Summary of the method: as §1

[8] = target: T7, 5HT3a (Homo sapiens, UniProt P46098); assay: Ion channel panel (IonWorks Barracuda): 5HT3a; type: cell-based
T7 construct: host or cells: HEK293 or CHO
T7 sequence (P46098 whole entry, looked up): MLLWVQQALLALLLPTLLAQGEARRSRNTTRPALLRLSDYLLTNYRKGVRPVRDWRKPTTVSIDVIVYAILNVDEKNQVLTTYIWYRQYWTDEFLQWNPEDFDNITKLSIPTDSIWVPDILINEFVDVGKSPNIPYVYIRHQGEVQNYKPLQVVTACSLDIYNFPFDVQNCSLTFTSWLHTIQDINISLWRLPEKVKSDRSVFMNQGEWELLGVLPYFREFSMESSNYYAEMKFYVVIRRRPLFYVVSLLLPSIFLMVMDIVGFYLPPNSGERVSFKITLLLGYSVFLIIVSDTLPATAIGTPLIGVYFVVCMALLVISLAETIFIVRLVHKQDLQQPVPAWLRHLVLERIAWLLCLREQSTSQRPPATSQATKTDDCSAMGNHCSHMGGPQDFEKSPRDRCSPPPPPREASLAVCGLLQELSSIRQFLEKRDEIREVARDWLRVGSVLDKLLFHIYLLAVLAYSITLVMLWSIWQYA
Summary of the method: as §1

[9] = target: T8, Nav1.7 (Homo sapiens, UniProt Q15858); assay: cell-based; type: cell-based; conditions: 100% = no change; for Activity of Nav1.7 with peptide, expressed as a percentage of the reference compound: peptide at 0.2 μM; for Activity of Nav1.7 with peptide (percentage of the reference compound): peptide at 20 μM
T8 construct: host or cells: HEK293 or CHO
T8 sequence (Q15858 whole entry): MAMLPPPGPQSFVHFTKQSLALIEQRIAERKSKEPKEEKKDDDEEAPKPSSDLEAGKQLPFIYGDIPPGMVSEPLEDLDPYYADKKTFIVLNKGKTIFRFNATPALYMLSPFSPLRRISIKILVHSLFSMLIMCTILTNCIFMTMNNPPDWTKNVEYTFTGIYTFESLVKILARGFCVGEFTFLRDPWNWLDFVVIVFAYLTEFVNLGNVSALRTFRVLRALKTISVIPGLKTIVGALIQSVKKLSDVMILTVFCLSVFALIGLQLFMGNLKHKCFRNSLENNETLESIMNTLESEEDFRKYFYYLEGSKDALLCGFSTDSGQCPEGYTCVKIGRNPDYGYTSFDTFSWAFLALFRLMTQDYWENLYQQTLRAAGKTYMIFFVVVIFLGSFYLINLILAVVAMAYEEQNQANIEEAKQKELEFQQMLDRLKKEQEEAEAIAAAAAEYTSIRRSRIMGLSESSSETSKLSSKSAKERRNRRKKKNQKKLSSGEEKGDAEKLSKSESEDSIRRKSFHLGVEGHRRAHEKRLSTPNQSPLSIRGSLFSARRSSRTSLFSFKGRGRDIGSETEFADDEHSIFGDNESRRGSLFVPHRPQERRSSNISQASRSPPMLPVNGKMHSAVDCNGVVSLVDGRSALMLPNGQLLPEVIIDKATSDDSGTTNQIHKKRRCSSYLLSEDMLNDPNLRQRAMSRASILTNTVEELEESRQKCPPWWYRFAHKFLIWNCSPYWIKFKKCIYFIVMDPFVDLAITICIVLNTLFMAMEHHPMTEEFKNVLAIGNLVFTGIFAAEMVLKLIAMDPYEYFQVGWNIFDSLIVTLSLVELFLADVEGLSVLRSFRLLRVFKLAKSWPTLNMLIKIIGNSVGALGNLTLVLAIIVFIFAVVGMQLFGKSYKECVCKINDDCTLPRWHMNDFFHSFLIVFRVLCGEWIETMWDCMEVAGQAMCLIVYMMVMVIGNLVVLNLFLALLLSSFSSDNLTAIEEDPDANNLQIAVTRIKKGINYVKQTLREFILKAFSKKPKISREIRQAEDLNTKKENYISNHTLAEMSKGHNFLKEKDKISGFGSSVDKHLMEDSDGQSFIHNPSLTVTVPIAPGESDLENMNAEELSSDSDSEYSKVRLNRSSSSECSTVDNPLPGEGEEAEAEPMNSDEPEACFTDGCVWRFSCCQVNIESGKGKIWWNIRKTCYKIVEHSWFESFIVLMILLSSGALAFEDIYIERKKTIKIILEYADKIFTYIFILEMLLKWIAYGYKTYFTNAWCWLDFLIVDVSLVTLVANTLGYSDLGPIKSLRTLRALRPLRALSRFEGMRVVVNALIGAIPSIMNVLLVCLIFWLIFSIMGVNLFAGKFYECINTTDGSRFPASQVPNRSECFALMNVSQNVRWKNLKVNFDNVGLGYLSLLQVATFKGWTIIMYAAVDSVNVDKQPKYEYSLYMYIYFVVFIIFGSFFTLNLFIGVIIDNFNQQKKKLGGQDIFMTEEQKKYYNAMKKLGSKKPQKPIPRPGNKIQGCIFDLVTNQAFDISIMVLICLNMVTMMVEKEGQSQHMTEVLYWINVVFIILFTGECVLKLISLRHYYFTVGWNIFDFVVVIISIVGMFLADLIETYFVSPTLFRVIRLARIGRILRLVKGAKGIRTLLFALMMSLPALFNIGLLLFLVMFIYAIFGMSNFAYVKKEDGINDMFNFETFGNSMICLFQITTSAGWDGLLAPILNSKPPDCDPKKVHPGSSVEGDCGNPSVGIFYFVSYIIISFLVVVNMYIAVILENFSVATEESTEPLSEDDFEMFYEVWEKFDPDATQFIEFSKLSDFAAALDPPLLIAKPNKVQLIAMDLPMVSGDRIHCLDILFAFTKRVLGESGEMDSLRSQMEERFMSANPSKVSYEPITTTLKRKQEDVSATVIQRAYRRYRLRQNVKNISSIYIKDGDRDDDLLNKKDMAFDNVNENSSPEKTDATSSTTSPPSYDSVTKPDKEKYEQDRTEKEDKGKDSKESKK

[10] = target: T9, TRPA1 (Homo sapiens, UniProt O75762); assay: Ion channel panel (IonWorks Barracuda): TRPA1; type: cell-based; conditions: 100% = no change, <100% = inhibition
T9 construct: host or cells: HEK293 or CHO
T9 sequence (O75762 whole entry): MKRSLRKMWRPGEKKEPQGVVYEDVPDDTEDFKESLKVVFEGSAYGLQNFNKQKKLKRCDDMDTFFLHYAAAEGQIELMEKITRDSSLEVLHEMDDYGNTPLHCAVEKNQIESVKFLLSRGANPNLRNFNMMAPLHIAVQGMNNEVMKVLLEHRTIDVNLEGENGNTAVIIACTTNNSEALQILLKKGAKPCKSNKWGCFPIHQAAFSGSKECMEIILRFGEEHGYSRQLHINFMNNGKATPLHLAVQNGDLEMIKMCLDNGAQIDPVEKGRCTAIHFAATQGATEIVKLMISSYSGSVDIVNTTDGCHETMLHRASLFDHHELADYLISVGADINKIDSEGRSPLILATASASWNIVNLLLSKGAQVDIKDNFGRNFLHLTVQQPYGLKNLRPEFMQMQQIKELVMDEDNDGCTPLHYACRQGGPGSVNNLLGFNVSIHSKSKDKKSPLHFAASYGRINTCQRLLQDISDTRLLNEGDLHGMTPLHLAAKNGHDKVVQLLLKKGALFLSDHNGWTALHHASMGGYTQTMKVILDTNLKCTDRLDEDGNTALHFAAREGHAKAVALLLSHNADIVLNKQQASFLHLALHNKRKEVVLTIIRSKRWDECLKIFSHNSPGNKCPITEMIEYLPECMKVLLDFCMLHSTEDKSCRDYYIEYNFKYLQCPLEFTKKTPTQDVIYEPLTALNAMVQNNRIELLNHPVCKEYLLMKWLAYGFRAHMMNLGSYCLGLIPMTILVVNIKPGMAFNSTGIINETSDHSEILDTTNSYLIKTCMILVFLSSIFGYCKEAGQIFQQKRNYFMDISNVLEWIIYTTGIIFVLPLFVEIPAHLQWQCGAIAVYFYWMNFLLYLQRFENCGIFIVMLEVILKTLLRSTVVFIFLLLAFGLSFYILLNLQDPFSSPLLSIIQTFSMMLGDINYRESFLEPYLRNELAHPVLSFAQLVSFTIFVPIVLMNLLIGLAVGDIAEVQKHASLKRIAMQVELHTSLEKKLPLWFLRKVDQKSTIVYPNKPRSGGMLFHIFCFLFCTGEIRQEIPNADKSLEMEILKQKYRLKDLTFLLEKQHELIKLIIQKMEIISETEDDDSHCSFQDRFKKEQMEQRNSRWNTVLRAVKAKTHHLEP
Summary of the method: as §1

[11] = target: T10, NR2B (Homo sapiens, UniProt Q13224); assay: Ion channel panel (IonWorks Barracuda): NR2B; type: cell-based; conditions: 100% = no change, <100% = inhibition
T10 construct: host or cells: HEK293 or CHO
Summary of the method: as §1

[12] = target: hERG (Homo sapiens, UniProt Q12809); assay: in vitro; conditions: 100% = no change, <100% = inhibition
Summary of the method: as §1

[13] = target: Nav1.5 (Homo sapiens, UniProt Q14524); assay: in vitro; conditions: 100% = no change; for Activity of Nav1.5 with peptide, expressed as a percentage of the reference compound: peptide at 0.2 μM; for Activity of Nav1.5 with peptide (percentage of the reference compound): peptide at 20 μM
Nav1.5, sequence (Q14524 whole entry): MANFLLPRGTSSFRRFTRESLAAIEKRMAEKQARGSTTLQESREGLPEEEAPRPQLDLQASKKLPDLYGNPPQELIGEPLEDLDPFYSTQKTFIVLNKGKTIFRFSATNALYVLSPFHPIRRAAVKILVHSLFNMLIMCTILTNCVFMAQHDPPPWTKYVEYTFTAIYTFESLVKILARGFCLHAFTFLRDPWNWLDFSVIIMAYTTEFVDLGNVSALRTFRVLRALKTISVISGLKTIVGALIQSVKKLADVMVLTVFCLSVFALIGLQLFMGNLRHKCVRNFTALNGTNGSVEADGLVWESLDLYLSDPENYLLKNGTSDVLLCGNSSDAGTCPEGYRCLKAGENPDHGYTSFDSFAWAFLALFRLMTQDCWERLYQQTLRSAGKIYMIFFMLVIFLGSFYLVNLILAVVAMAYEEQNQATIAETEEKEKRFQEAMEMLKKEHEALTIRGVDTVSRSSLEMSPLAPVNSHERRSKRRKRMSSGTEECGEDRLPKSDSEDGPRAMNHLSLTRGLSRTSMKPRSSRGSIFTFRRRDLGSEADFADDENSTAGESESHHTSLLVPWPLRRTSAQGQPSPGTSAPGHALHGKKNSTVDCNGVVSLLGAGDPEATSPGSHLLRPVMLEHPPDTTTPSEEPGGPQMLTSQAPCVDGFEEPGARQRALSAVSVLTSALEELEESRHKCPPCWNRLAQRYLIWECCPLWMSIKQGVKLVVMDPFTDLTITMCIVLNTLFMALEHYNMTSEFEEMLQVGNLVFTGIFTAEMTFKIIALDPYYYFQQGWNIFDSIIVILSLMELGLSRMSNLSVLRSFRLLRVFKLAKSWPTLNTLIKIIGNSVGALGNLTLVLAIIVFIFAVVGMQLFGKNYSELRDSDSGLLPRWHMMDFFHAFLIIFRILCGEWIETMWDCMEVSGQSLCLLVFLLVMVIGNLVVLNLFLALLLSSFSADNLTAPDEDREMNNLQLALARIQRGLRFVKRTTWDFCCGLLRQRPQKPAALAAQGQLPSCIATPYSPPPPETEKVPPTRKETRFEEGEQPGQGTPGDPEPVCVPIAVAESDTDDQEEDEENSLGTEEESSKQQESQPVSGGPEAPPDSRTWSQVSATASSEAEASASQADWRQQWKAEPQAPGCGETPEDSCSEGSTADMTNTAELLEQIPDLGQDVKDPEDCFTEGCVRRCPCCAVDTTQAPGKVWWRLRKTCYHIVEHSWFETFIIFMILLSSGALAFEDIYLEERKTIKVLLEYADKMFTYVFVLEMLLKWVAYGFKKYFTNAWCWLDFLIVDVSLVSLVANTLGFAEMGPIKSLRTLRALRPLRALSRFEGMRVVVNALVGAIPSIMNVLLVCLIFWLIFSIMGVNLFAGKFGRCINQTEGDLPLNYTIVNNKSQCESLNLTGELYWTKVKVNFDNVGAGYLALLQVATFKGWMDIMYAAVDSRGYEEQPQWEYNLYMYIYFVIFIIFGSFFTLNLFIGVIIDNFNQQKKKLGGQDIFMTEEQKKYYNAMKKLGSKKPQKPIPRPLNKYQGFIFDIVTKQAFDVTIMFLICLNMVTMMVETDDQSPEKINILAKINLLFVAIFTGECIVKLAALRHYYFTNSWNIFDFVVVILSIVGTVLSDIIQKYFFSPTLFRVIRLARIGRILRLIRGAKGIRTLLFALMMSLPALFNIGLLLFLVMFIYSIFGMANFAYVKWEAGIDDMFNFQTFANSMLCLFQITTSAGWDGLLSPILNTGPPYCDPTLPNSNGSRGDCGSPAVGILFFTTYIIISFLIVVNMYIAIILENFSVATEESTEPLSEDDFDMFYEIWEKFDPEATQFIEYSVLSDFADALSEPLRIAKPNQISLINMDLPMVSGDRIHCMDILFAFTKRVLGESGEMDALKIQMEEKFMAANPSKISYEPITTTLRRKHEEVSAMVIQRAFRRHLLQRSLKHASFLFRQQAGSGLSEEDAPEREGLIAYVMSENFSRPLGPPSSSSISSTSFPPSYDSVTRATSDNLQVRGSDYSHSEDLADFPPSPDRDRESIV
Summary of the method: as §1

[14] = target: T11, Kv1.3 (Homo sapiens, UniProt P22001); assay: cell-based; type: cell-based; conditions: 100% = no change, <100% = inhibition
T11 construct: host or cells: HEK293 or CHO
Summary of the method: as §1

[15] = target: T12, Kv1.2 (Homo sapiens, UniProt P16389); assay: cell-based; type: cell-based; conditions: 100% = no change, <100% = inhibition
T12 construct: host or cells: HEK293 or CHO
Summary of the method: as §1

[16] = target: T13, Kv1.1 (Homo sapiens, UniProt Q09470); assay: cell-based; type: cell-based; conditions: 100% = no change, <100% = inhibition
T13 construct: host or cells: HEK293 or CHO
Summary of the method: as §1

[17] = target: T14, α3β4 (Homo sapiens, UniProt P30926+P32297); assay: Ion channel panel (IonWorks Barracuda): α3β4; type: cell-based; conditions: 100% = no change, <100% = inhibition
T14 construct: host or cells: HEK293 or CHO
Summary of the method: as §1

[18] = target: T15, α4β2 (Homo sapiens, UniProt P17787+P43681); assay: Ion channel panel (IonWorks Barracuda): α4β2; type: cell-based; conditions: 100% = no change, <100% = inhibition
T15 construct: host or cells: HEK293 or CHO
Summary of the method: as §1

[19] = first of two Nav1.7 columns (probably TP1)
[20] = second of two Nav1.7 columns (probably TP2)
[21] = first of two Nav1.5 columns (probably TP1)
[22] = second of two Nav1.5 columns (probably TP2)

15 (GSAVCNLKRCQLSCRSLGLLGKCIGDKCECVKHG) [compound 15]
Activity of TRPV1 with peptide, expressed as a percentage of the reference compound ([1]; peptide at 0.2 μM): 124%
Activity of TRPV1 with peptide (percentage of the reference compound) ([1]; peptide at 20 μM): 99%
Activity of Cav2.1 with peptide, expressed as a percentage of the reference compound ([2]; peptide at 0.2 μM): 106%
Activity of Cav2.1 with peptide (percentage of the reference compound) ([2]; peptide at 20 μM): 86%
Activity of Cav2.2 with peptide, expressed as a percentage of the reference compound ([3]; peptide at 0.2 μM): 105%
Activity of Cav2.2 with peptide (percentage of the reference compound) ([3]; peptide at 20 μM): 106%
Activity of Kv2.1 with peptide, expressed as a percentage of the reference compound ([4]; peptide at 0.2 μM): 91%
Activity of Kv2.1 with peptide (percentage of the reference compound) ([4]; peptide at 20 μM): 88%
Activity of Kir2.1 with peptide, expressed as a percentage of the reference compound ([5]; peptide at 0.2 μM): 107%
Activity of Kir2.1 with peptide (percentage of the reference compound) ([5]; peptide at 20 μM): 88%
Activity of NR2A with peptide, expressed as a percentage of the reference compound ([6]; peptide at 0.2 μM): 97%
Activity of NR2A with peptide (percentage of the reference compound) ([6]; peptide at 20 μM): 76%
Activity of GABA with peptide, expressed as a percentage of the reference compound ([7]; peptide at 0.2 μM): 122%
Activity of GABA with peptide (percentage of the reference compound) ([7]; peptide at 20 μM): 97%
Activity of 5HT3a with peptide (percentage of the reference compound) [8]: 74%
Activity of 5HT3a with peptide, expressed as a percentage of the reference compound [8]: 86%
Activity of Nav1.7 with peptide, expressed as a percentage of the reference compound [9, 19]: 91%
Activity of Nav1.7 with peptide, expressed as a percentage of the reference compound [9, 20]: 97%
Activity of Nav1.7 with peptide (percentage of the reference compound) [9, 19]: 75%
Activity of Nav1.7 with peptide (percentage of the reference compound) [9, 20]: 58%
Activity of TRPA1 with peptide, expressed as a percentage of the reference compound ([10]; peptide at 0.2 μM): 114%
Activity of TRPA1 with peptide (percentage of the reference compound) ([10]; peptide at 20 μM): 76%
Activity of NR2B with peptide, expressed as a percentage of the reference compound ([11]; peptide at 0.2 μM): 103%
Activity of NR2B with peptide (percentage of the reference compound) ([11]; peptide at 20 μM): 88%
Activity of hERG with peptide, expressed as a percentage of the reference compound ([12]; peptide at 0.2 μM): 79%
Activity of hERG with peptide (percentage of the reference compound) ([12]; peptide at 20 μM): 67%
Activity of Nav1.5 with peptide, expressed as a percentage of the reference compound [13, 21]: 90%
Activity of Nav1.5 with peptide, expressed as a percentage of the reference compound [13, 22]: 91%
Activity of Nav1.5 with peptide (percentage of the reference compound) [13, 21]: 78%
Activity of Nav1.5 with peptide (percentage of the reference compound) [13, 22]: 79%
Activity of Kv1.3 with peptide, expressed as a percentage of the reference compound ([14]; peptide at 0.2 μM): 86%
Activity of Kv1.3 with peptide (percentage of the reference compound) ([14]; peptide at 20 μM): 90%
Activity of Kv1.2 with peptide, expressed as a percentage of the reference compound ([15]; peptide at 0.2 μM): 77%
Activity of Kv1.2 with peptide (percentage of the reference compound) ([15]; peptide at 20 μM): 76%
Activity of Kv1.1 with peptide, expressed as a percentage of the reference compound ([16]; peptide at 0.2 μM): 69%
Activity of Kv1.1 with peptide (percentage of the reference compound) ([16]; peptide at 20 μM): 72%
Activity of a3b4 with peptide, expressed as a percentage of the reference compound ([17]; peptide at 0.2 μM): 91%
Activity of a3b4 with peptide (percentage of the reference compound) ([17]; peptide at 20 μM): 86%
Activity of a4b2 with peptide, expressed as a percentage of the reference compound ([18]; peptide at 0.2 μM): 71%
Activity of a4b2 with peptide (percentage of the reference compound) ([18]; peptide at 20 μM): 95%
